Measurements: patent US7067633B2, “Targeting cellular entry, cell survival, and pathogenicity by dynein light chain 1/PIN in human cells” (Board of Regents, The University of Texas System, priority 2003, dated 2006)

How the values were obtained:
DLC1 promoter = DLC1 promoter luciferase reporter; format: cell-based, human; conditions: MCF-7 cells, expression of inhibitor
Experimental: FIGS. 21A–21J—Estrogenic signals upregulate DLC1 expression via Pak1 pathway. FIG. 21A: DLC1 upregulation by E2 or Tam. MCF-7/Tam-sen, MCF-7/TAMR1 and Ishikawa cells were treated with E2 (10^−9M) or Tam (10^−9M) for 24 h, and cell lysates were assayed for DLC1 and Pak1 protein expression. FIG. 21B: Upregulation of DLC1 mRNA in MCF-7 cells treated with different doses of E2 for 24 h. FIG. 21C: Effect of different periods of E2 treatment and cycloheximide (CHX) and Actinomycin D (ACTD) treatment on the ability of E2 to upregulate DLC1 mRNA in MCF-7 cells. FIG. 21D: DLC1 mRNA and protein levels in MCF-7/DA-Pak1 cells by Northern and Western blotting. FIG. 21E: DLC1 mRNA and protein levels in MCF-7/DN-Pak1 cells by Northern and Western blotting. FIG. 21F: Downregulation of DLC1 protein expression in MCF-7 cells treated with Pak1-siRNA for 24 h. FIG. 21G: Modulation of DLC1 promoter (1245 bp) luc activity by the expression of wtPak1 or DN-Pak1. MCF-7 cells were transfected with DLC1-luc and transfected with either wtPak1 or Pak1 inhibitor 83-149 and luc activity was measured after 24 h. FIG. 21H: Upregulation of DLC1 promoter luc activity following pak1 induction in MCF-7/DA-Pak 1 cells. FIG. 21I: Downegulation of DLC1 promoter luc activity in MCF-7/DN-pak1 cells. […]

DLC1/PIN = test: In vivo 32P-orthophosphate labeling and immunoprecipitation of T7-DLC1/PIN; format: cell-based, human; conditions: MCF-7 cells, coexpression with T7-DLC1/PIN
Experimental: FIGS. 2A–2G—MapDLC1/PINg of interaction domains of Pak1 and DLC1/PIN. FIG. 2A: Identification of Pak1 domains that interact with DLC1/PIN. GST-Pak1 fusion proteins containing wild-type (amino acids 1–545), kinase domain (amino acids 270–545), N-terminal domain (amino acids 1–132), PIX binding domain (amino acids 132–270), Nck-binding domain (amino acids 1–75), Cdc42/Rac-interacting (CRIB) domain (amino acids 52–132), and auto-inhibitory domain (amino acids 75–149) were incubated with in vitro translated DLC1/PIN (amino acids 1–89), and binding was analyzed by GST pull-down assay. FIG. 2B: Identification of the DLC1/PIN region that is involved in the binding of Pak1. GST-fusions of various lengths of DLC1/PIN were used in the GST pull-down assay using ^35S-labelled Pak1 (amino acids 1–545). FIGS. 2C–2G—Pak1 phosphorylation of DLC1/PIN. FIG. 2C: In vitro kinase assay using GST-DLC1/PIN as a substrate and purified bacterially expressed Pak1 as an enzyme. MBP was used as a positive control. FIG. 2D: ZR75R cells stably expressing T7-DLC1/PIN were labeled in vivo with ^32P-orthophosphate, serum starved, treated with EGF or HRG, and immunoprecipitated and phosphorylation status of DLC1/PIN was visualized by autoradiography. […] Cells were metabolically labeled with ^32P orthophosphate, treated with or without EGF (1 nM) and phosphorylation of T7-DLC1/PIN was analyzed by immunoprecipitation. […]

SKBR-3 cells = test: Pak1-mediated macropinocytosis, vesicle formation by confocal microscopy; format: cell-based, human
Experimental: FIG. 3—Requirement of DLC1/PIN in Pak1 mediated macropinocytosis. SKBR-3 cells were cotransfected with RFP-DLC1/PIN and GFP-Pak1 (upper panel), RFP-DLC1/PIN-S88A, and GFP-Pak1 (middle panel) and RFP-DLC1-1-66, and GFP-Pak1 (lower panel). Vesicle formation and localization of GFP and RFP proteins were analyzed by confocal microscopy. Ten randomly selected fields were analyzed for each condition. The experiment was repeated twice with similar results. Quantitation of vesicles formation was done using the following scoring system. −, cells containing 0–9 vesicles; +, cells containing 10–20 vesicles; and ++, cells containing >20 vesicles.
Requirement of DLC1/PIN in Pak1 mediated macropinocytosis. […] The inventors have used the fluorescein isothiocyanate (FITC)-labeled Dextran as a marker of endocytosis using a well-established dextran beads uptake assay (Dharmawardhane et al., 2000). […]
SK-BR3 cells were cotransfected with RFP-DLC1 and GFP-Pak1 (upper panel), RFP-DLC1-S88A and GFP-Pak1 (middle panel), and RFP-DLC8-1-66 and GFP-Pak1 (bottom panel). Vesicle formation and localization of GFP and RFP proteins were analyzed by confocal microscopy. Ten randomly selected fields were analyzed for each condition. […]

Human dendritic cells = test: Macropinocytosis in dendritic cells, FITC-dextran uptake; format: cell-based; conditions: expression in human dendritic cells
Experimental: (§1) FIG. 16—DLC1 is required for macropinocytosis in dendritic cells. Human dendritic cells were plated on cover sips in 6-well tissue culture plates, transfected with RFP-DLC1 wild type or DLC1-1-66 mutant lacking Pak1 binding and phosphorylation sites. After 12 hours, FITC-dextran was added to the culture medium for 20 min and cells were fixed and stained with Topro-3 (a DNA dye) and analyzed by confocal microscopy for RFP-DLC1 (red) or RFP-DLC1-1-66 (red) and FITC-dextran (green). White arrows point to RFP-DLC1-1-66 transfected cells and red arrows point to cells transfected with RFP-DLC1.
as §1, with “Human” for “FIG. 16—DLC1 is required for macropinocytosis in dendritic cells. Human”, “slips” for “sips”

[1] = tested on: ER transactivation (ERE-luc); test: ERE-luc transactivation assay; format: cell-based, human; conditions: compared to the wild type DLC1
Experimental: MCF-7/DA-Pak1 cells were transfected with ERE-luc, treated with or without Dox for 24 h and then with or without E2 (10^−9M) and/or Tam (10^−8M) for 24 h, and ERE-luc activity was measured. […] FIG. 20D: MCF-7/TAM-Sen and MCF-7/TAMR1 cells were transfected with ERE-luc and treated with E2 or Tam for 24 h and ERE-luc activity was measured. […] FIG. 20L: Ishikawa cells were cotransfected with Pak1 siRNA control or Pak1 siRNA wt and treated with or without Tam (10^−8M) for 24 h and ERE-luc activity was measured.
Ishikawa and MCF-7/TAMR1 cells were transfected with control or Pak1 siRNA for 48 h and then with ERE-luc for 24 h and treated with E2 (10^−9M) for 24 h and ERE-luc activity was measured. […] Ishikawa cells were treated with control or and Pak1 and DLC siRNA for 48 h and then transfected with ERE-luc and treated with Tam (10^−8M) for 24 h and ERE-luc activity was measured.

B1: […] Pak1 auto inhibitory fragment used as an inhibitor (Pak1 amino acids 83–149) (protein, UniProt Q13153 83-149, looked up, fragment)
chain: HTIHVGFDAVTGEFTGMPEQWARLLQTSNITKSEQKKNPQAVLDVLEFYNSKKTSNSQKYMSFTDKS
**Q.** How did the DLC1 promoter activity (DLC1 promoter) turn out when B1 was run?
**A.** Its DLC1 promoter activity is “suppressed”.

**Q.** And the “EGF-stimulated DLC1/PIN phosphorylation” value (DLC1/PIN)?
**A.** Its value is “completely blocked”.

B2: DLC1-66 peptide: SEQ ID NO:11; DLC1/PIN mutant, amino acids 1–66, lacking the C-terminal 23 amino acids (Pak1 binding and phosphorylation sites) (protein, listed as Homo sapiens)
chain: MCDRKAVIKNADMSEEMQQDSVECATQALEKYNIEKDIAAHIKKEFDKKYNPTWHCIVGRNFGSYV
**Q.** With B2 as the molecule, how does the “transfected cells in which formation of vesicles was completely blocked” value (SKBR-3 cells; cotransfected with GFP-Pak1) read?
**A.** Its value is “more than 80%”.

**Q.** And the macropinocytic functions (SKBR-3 cells; expression in human breast cancer cell line SKBR3)?
**A.** Its macropinocytic functions is “blocks macropinocytic functions”.

**Q.** What about the macropinocytic functions (Human dendritic cells) of the same molecule?
**A.** The macropinocytic functions was “blocks macropinocytic functions”.

B3: DLC1 1-68R mutant: DLC1 mutant lacking amino acids 67–89, behaves as a dominant-negative (protein, UniProt P63167 1-66, looked up, fragment)
chain: B2 chain
**Q.** Which “ERE-transactivation in the presence of tamoxifen” value [1] does the source give for B3 here?
**A.** The value was “reduced ERE-transactivation”.
